{"source": "paper PMC5504672", "key": {"[1]": {"target": "T1, IolQ-His6 (DegA) (Bacillus subtilis 168) (UniProt P37947)", "T1 sequence": "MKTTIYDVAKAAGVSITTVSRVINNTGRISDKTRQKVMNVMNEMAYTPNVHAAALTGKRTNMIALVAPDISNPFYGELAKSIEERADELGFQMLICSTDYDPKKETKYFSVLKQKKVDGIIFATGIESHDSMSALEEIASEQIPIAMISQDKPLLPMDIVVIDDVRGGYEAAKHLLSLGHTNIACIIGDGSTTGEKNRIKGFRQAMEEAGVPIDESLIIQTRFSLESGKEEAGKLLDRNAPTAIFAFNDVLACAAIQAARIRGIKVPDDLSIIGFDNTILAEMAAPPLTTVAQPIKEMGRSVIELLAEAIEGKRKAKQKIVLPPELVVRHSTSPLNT", "experiment": "DNase I footprinting", "details": "10 mM Tris-HCl pH 8.0, 1 mM DTT, 10 mM KCl, 5 mM MgCl2, 10% glycerol, 5 ug/ml poly d(I-C), 50 ug/ml BSA, 37 C, 30 min; DNA 0.155 pmol in 0.02 ml (EMSA) or …"}, "[2]": {"target": "T1, IolQ-His6 (DegA) (Bacillus subtilis 168)", "experiment": "EMSA", "details": "10 mM Tris-HCl pH 8.0, 1 mM DTT, 10 mM KCl, 5 mM MgCl2, 10% glycerol, 5 ug/ml poly d(I-C), 50 ug/ml BSA, 37 C, 30 min; DNA 0.155 pmol in 0.02 ml (EMSA) or …"}}}
{"sequence": "GAGCTTGTAGTCAGACATTCTACATCACCGCTCAACACATGAGCCCGCTAATGAGCGGGTTTTTTCATTATGACAGTTGAAGCCAAAAAAACATATTGCGTGTAAACCAAAGGCGGTGTAAAATATAACCATCTTTTGAGAAAGCGCTTGCGCAAAATGGCAGAGCGGATAGAACCGCTGTTTTTTTAGCTGTTAAGAGAAAACGCTTTCTCAAAGCGAGCCCGAAATGAGATAAAGGAGAGGATGGGACGTGGAACATCAAGTAAGATGTGCAGTATTGGGATTAGGAAGGCTCGGTTA (double strand) [iolX promoter 300 bp footprint probe, high affinity region]", "values": [{"measurement": "binding", "setting": "[1]", "value": "binds"}]}
{"sequence": "ATGAGCGGGTTTTTTCATTATGACAGTTGAAGCCAAAAAAACATATTGCGTGTAAACCAAAGGCGGTGTAAAATATAACCATCTTTTGAGAAAGCGCTTGCGCAAAATGGCAGAGCGGATAGAACCGCTGTTTTTTTAGCTGTTAAGAGAAAACGCTTTCTCAAAGCGAGCCCGAAATGAGATAAAGGAGAGGATGGGAC (double strand) [iolX promoter 200 bp]", "values": [{"measurement": "binding", "setting": "[2]", "value": "binds"}]}
